Assay results from the supplement of paper PMC9876800.

Test system: peptide library, one residue held at a place counted from the S/T acceptor
Test: relative phosphorylation of the sub-library (ratio to the mean residue at this position); higher = residue favoured
Conditions: human
Method in brief: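 Purified recombinant kinases were reacted in 384-well plates with biotinylated degenerate peptide sub-libraries, each having one residue fixed at one position around a central Ser/Thr. The reaction mix contained 50 μM peptide plus 50 μM ATP spiked with γ-32P-ATP and ran for 90 min under kinase-specific conditions. Relative sub-library phosphorylation, taken from densitometry of phosphorimaged streptavidin membrane spots, is a ratio to the mean residue at that position.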

IKBKB, construct: Full length, sequence (O14920 whole entry, looked up): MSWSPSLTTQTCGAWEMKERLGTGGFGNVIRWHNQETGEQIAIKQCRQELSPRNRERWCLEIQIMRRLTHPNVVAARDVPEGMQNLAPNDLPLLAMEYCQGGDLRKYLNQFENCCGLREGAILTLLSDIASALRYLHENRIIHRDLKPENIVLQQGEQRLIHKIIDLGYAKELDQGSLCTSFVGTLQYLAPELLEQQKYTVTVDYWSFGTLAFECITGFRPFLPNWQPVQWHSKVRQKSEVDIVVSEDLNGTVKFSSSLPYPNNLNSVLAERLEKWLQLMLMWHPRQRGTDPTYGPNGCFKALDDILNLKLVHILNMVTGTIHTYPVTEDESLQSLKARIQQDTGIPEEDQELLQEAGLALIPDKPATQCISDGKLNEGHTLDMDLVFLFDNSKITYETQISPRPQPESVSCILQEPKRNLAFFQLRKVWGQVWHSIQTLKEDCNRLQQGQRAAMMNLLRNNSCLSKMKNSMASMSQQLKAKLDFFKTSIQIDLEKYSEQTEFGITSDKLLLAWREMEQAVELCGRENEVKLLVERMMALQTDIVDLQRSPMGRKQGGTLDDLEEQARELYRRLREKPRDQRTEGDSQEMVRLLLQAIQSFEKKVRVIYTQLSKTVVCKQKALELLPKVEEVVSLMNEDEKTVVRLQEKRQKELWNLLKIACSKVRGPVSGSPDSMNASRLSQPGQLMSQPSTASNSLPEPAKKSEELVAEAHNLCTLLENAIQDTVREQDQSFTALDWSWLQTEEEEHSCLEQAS
MAP4K1, construct: Full length, sequence (Q92918 whole entry, looked up): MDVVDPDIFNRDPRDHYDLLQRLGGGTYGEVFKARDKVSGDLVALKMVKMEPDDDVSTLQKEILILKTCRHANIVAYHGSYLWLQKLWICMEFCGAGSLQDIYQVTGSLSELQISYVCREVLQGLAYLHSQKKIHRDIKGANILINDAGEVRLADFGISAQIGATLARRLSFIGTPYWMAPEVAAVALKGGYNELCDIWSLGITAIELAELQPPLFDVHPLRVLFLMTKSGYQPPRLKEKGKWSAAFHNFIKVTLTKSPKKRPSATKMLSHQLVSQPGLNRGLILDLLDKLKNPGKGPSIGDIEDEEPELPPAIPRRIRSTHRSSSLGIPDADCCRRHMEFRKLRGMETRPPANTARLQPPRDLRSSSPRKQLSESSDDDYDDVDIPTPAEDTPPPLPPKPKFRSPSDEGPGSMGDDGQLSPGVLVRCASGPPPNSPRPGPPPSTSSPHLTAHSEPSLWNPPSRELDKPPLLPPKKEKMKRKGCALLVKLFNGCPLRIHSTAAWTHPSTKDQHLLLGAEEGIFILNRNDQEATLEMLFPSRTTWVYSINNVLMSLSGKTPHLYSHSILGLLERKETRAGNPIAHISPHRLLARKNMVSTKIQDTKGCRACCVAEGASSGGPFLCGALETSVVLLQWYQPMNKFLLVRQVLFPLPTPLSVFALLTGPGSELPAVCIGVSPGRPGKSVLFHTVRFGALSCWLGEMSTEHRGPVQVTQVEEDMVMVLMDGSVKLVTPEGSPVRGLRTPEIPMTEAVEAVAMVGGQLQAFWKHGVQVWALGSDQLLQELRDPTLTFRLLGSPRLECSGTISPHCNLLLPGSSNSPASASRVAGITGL

MKNK2, construct: Full length (from UniProt Q9HBH9)
relative phosphorylation
Conditions | at +1 | at +2 | at +3 | at +4 | at -1 | at -2 | at -3 | at -4 | at -5
A fixed | 0.742 | 1 | 0.937 | 0.945 | 1.12 | 0.903 | 0.8 | 1.28 | 1.23
D fixed | 0.22 | 0.453 | 0.406 | 0.728 | 0.37 | 0.24 | 0.239 | 0.284 | 0.221
E fixed | 0.385 | 0.465 | 0.433 | 0.79 | 0.369 | 0.24 | 0.449 | 0.359 | 0.272
F fixed | 1.36 | 0.807 | 0.936 | 0.895 | 0.555 | 0.439 | 0.453 | 0.721 | 0.949
G fixed | 0.506 | 0.739 | 1.58 | 1.08 | 1.04 | 0.958 | 1.53 | 1.54 | 1.05
H fixed | 1.06 | 1.71 | 1.32 | 1.22 | 1.24 | 0.874 | 1.07 | 1.02 | 0.898
I fixed | 1.35 | 0.818 | 0.664 | 0.756 | 0.417 | 0.368 | 0.365 | 0.716 | 1.11
K fixed | 1.02 | 0.875 | 1.89 | 1.62 | 3.14 | 2.06 | 3.1 | 1.75 | 1.4
L fixed | 1.17 | 0.781 | 0.923 | 0.745 | 0.741 | 0.421 | 0.439 | 0.909 | 1.47
M fixed | 1.73 | 0.915 | 0.942 | 0.849 | 0.887 | 0.427 | 0.617 | 0.898 | 0.976
N fixed | 0.667 | 0.797 | 0.76 | 0.94 | 0.96 | 0.956 | 0.847 | 0.911 | 0.648
P fixed | 0.24 | 0.44 | 0.931 | 1.21 | 0.284 | 0.571 | 1.48 | 1.58 | 1.49
Q fixed | 1.59 | 0.904 | 1.1 | 1.13 | 1.2 | 0.835 | 0.957 | 0.884 | 0.767
R fixed | 1.19 | 1.29 | 1.34 | 1.05 | 2.77 | 6.1 | 3.21 | 1.79 | 1.23
V fixed | 1.19 | 0.981 | 0.703 | 0.861 | 0.566 | 0.5 | 0.401 | 0.749 | 1.47
W fixed | 1.17 | 1.39 | 0.974 | 1.16 | 0.531 | 0.491 | 0.475 | 0.713 | 0.876
Y fixed | 1.41 | 2.63 | 1.15 | 1.03 | 0.818 | 0.615 | 0.574 | 0.899 | 0.942
pThr fixed | 0.649 | 0.492 | 0.516 | 0.736 | 0.203 | 0.304 | 0.47 | 0.562 | 0.572
pTyr fixed | 0.783 | 0.714 | 0.604 | 0.782 | 0.285 | 0.356 | 0.568 | 0.647 | 0.642

IKBKB, construct: Full length (from UniProt O14920)
relative phosphorylation
Conditions | at +1 | at +2 | at +3 | at +4 | at -1 | at -2 | at -3 | at -4 | at -5
A fixed | 0.6 | 0.901 | 1.06 | 1.08 | 0.811 | 0.919 | 0.94 | 1.15 | 1.22
D fixed | 0.469 | 1.2 | 1.65 | 1.46 | 1.1 | 0.397 | 0.912 | 1.57 | 1.71
E fixed | 0.544 | 1.27 | 1.65 | 1.43 | 0.941 | 0.805 | 1.05 | 1.8 | 1.52
F fixed | 1.55 | 0.676 | 1.01 | 0.834 | 0.909 | 2.22 | 1.07 | 0.751 | 0.995
G fixed | 1.12 | 1.2 | 1.46 | 1.09 | 0.478 | 0.442 | 1 | 1.24 | 1.23
H fixed | 0.745 | 1.39 | 1.11 | 0.922 | 1.21 | 1.47 | 1.19 | 0.94 | 1.01
I fixed | 2.06 | 0.812 | 0.71 | 0.769 | 0.89 | 1.11 | 0.762 | 0.749 | 0.741
K fixed | 0.268 | 0.805 | 0.68 | 0.827 | 1.03 | 0.408 | 0.878 | 0.741 | 0.714
L fixed | 2.05 | 0.783 | 0.816 | 0.81 | 1.22 | 1.48 | 0.699 | 0.754 | 0.687
M fixed | 1.66 | 0.701 | 0.8 | 0.995 | 1.09 | 1.16 | 0.764 | 0.907 | 0.738
N fixed | 0.613 | 1.5 | 1.1 | 1.08 | 1.15 | 1.06 | 1.01 | 0.988 | 1.03
P fixed | 0.228 | 1.13 | 0.931 | 1.43 | 1.06 | 0.371 | 1.31 | 1.17 | 0.973
Q fixed | 0.576 | 1.25 | 0.91 | 1.06 | 0.989 | 0.73 | 0.922 | 0.878 | 0.908
R fixed | 0.362 | 1.08 | 0.608 | 0.672 | 1.07 | 0.583 | 1.76 | 0.975 | 0.842
V fixed | 1.38 | 1.1 | 0.688 | 0.738 | 0.998 | 0.762 | 0.843 | 0.804 | 0.89
W fixed | 1.46 | 0.525 | 0.904 | 1.02 | 0.895 | 0.85 | 0.885 | 0.733 | 0.926
Y fixed | 1.33 | 0.665 | 0.917 | 0.773 | 1.16 | 2.23 | 1.01 | 0.851 | 0.864
pThr fixed | 0.817 | 1.38 | 0.898 | 1.53 | 1.01 | 1.08 | 1.55 | 1.97 | 1.93
pTyr fixed | 1.03 | 1.32 | 1.23 | 1.06 | 1.77 | 4.33 | 2.11 | 1.48 | 1.51

SRPK1, construct: Full length (from UniProt Q96SB4)
relative phosphorylation
Conditions | at +1 | at +2 | at +3 | at +4 | at -1 | at -2 | at -3 | at -4 | at -5
A fixed | 0.85 | 1.23 | 0.682 | 1.04 | 1.12 | 1.65 | 0.811 | 1.21 | 1.51
D fixed | 0.273 | 1.46 | 0.499 | 1.13 | 0.486 | 1.63 | 0.506 | 0.682 | 0.77
E fixed | 0.377 | 1.33 | 0.412 | 0.886 | 0.589 | 0.981 | 0.363 | 0.734 | 0.686
F fixed | 0.387 | 0.626 | 0.424 | 0.741 | 0.476 | 0.637 | 0.297 | 0.713 | 1
G fixed | 0.942 | 1.03 | 0.911 | 1.12 | 0.959 | 1.34 | 0.634 | 1.14 | 1.28
H fixed | 0.563 | 1.61 | 0.697 | 0.988 | 1.2 | 1.72 | 0.454 | 0.956 | 0.954
I fixed | 0.607 | 0.588 | 0.46 | 0.823 | 0.554 | 0.51 | 0.372 | 0.736 | 0.796
K fixed | 1.55 | 1.14 | 1.43 | 1.47 | 2.19 | 1.34 | 1.02 | 1.61 | 1.58
L fixed | 0.698 | 0.623 | 0.46 | 0.781 | 0.741 | 0.429 | 0.326 | 0.725 | 0.788
M fixed | 0.62 | 0.715 | 0.499 | 0.773 | 0.723 | 0.5 | 0.302 | 0.823 | 0.892
N fixed | 0.613 | 1.15 | 0.796 | 1.05 | 1.02 | 1.19 | 0.433 | 0.962 | 0.867
P fixed | 4.75 | 1.34 | 1.69 | 1.36 | 1.9 | 1.03 | 0.6 | 1.38 | 1.01
Q fixed | 0.932 | 0.981 | 0.699 | 1.1 | 1.16 | 0.692 | 0.596 | 0.87 | 0.675
R fixed | 2.33 | 1.27 | 5.99 | 1.4 | 2.17 | 1.6 | 9.31 | 2.29 | 1.45
V fixed | 0.722 | 0.715 | 0.458 | 0.705 | 0.698 | 0.54 | 0.343 | 0.66 | 0.879
W fixed | 0.417 | 0.582 | 0.452 | 0.886 | 0.42 | 0.616 | 0.312 | 0.735 | 1.04
Y fixed | 0.378 | 0.607 | 0.439 | 0.745 | 0.572 | 0.594 | 0.322 | 0.771 | 0.829
pThr fixed | 0.489 | 1.26 | 0.585 | 1.19 | 0.548 | 0.681 | 0.51 | 0.772 | 0.765
pTyr fixed | 0.462 | 0.95 | 0.653 | 1.06 | 0.753 | 1.39 | 0.694 | 1.43 | 0.947

MAP4K1, construct: Full length (from UniProt Q92918)
relative phosphorylation
Conditions | at +1 | at +2 | at +3 | at +4 | at -1 | at -2 | at -3 | at -4 | at -5
A fixed | 0.465 | 0.82 | 0.882 | 0.928 | 0.991 | 1.1 | 0.946 | 0.951 | 1.07
D fixed | 0.192 | 0.786 | 0.471 | 0.756 | 0.585 | 0.362 | 0.52 | 0.653 | 0.679
E fixed | 0.199 | 0.706 | 0.454 | 0.629 | 0.441 | 0.302 | 0.487 | 0.699 | 0.613
F fixed | 1.23 | 0.581 | 0.893 | 0.879 | 0.987 | 1.36 | 0.908 | 1.14 | 1.11
G fixed | 0.58 | 0.957 | 0.933 | 1.13 | 1.79 | 1.06 | 1.21 | 1.29 | 1.15
H fixed | 0.575 | 1.13 | 1.04 | 1.08 | 1.37 | 1.36 | 1.3 | 1.08 | 1.07
I fixed | 1.91 | 0.442 | 0.571 | 0.806 | 0.342 | 0.646 | 0.545 | 0.706 | 0.763
K fixed | 0.56 | 2.51 | 1.8 | 1.65 | 1.24 | 1.11 | 1.93 | 1.26 | 1.49
L fixed | 3.52 | 0.604 | 0.724 | 0.863 | 1.17 | 0.667 | 0.694 | 0.798 | 0.746
M fixed | 2.94 | 0.695 | 0.763 | 0.861 | 1.26 | 0.794 | 0.823 | 0.896 | 0.934
N fixed | 0.442 | 0.974 | 0.925 | 0.978 | 1.3 | 0.931 | 0.928 | 0.849 | 0.88
P fixed | 0.396 | 1.17 | 1.13 | 1.02 | 0.534 | 0.62 | 0.766 | 0.955 | 1.09
Q fixed | 0.5 | 0.869 | 0.837 | 0.958 | 0.745 | 0.679 | 0.904 | 0.888 | 0.83
R fixed | 0.573 | 2.9 | 2.98 | 1.62 | 1.62 | 1.6 | 2.01 | 1.39 | 1.34
V fixed | 0.584 | 0.521 | 0.654 | 0.815 | 0.438 | 0.798 | 0.634 | 0.828 | 0.895
W fixed | 1.45 | 0.627 | 0.991 | 1.14 | 0.909 | 1.51 | 1.28 | 1.37 | 1.15
Y fixed | 0.877 | 0.706 | 0.942 | 0.887 | 1.27 | 2.1 | 1.11 | 1.24 | 1.2
pThr fixed | 1.32 | 1.33 | 1.14 | 0.786 | 0.699 | 1.1 | 1.22 | 1.25 | 1.32
pTyr fixed | 0.373 | 0.593 | 0.669 | 0.602 | 0.86 | 0.653 | 0.977 | 0.948 | 1.04
